Measured values published in the supplement of paper PMC10567573.
± gives the standard deviation.

Assay: protein stability index of a GFP-peptide fusion (GPS, HEK-293T) (PSI 1-6); higher = more stable
[1] = treatment: DMSO, c terminus: a fixed tail appended
[2] = treatment: MLN4924 1 uM, 8 h, c terminus: a fixed tail appended
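Also: 24-mer peptide tiles fused after GFP, lentivirally expressed, FACS-sorted into six equal bins by GFP/DsRed ratio, decoded by Illumina sequencing, PSI is the read-weighted mean bin number.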

Q: With FHRSQTLSYRNGYAIVRRPTVGIG [EFHC1] as the sequence, how does the protein stability index [1] read?
A: 2.44 ± 0.39

Q: And the protein stability index [2]?
A: 2.54 ± 0.22

Q: Which protein stability index [1] does the source give for LAQAAGFAPQTGARPSETFARFCK [DNAAF3] here?
A: 3.52 ± 0.23

Q: And the protein stability index [2]?
A: 3.57 ± 0.4

Q: Which results are given for SPYLGQMINLRRLLLSHIHASSYI [PRAME]?
A: protein stability index [1]: 2.7 ± 0.51; protein stability index [2]: 2.47 ± 0.48

Q: Which protein stability index [1] does the source give for ANRWSFEGMDRWIKKIEEHAPGVP [RAB40A] here?
A: 3.33 ± 0.26

Q: What about the protein stability index [2] of the same sequence?
A: 3.4 ± 0.33

Q: Which protein stability index [1] does the source give for RDQIFRYVHDPECVATTGDITVSV [FBXO3] here?
A: 2.52 ± 0.2

Q: What about the protein stability index [2] of the same sequence?
A: 2.42 ± 0.27

Q: Which results are given for PCLDQTRVKLTKRSGHTQTDYINA [PTPN9]?
A: protein stability index [1]: 3.99 ± 0.59; protein stability index [2]: 3.91 ± 0.1

Q: For EAECEKSSATTYFWYREALDISDS [SLC6A17], which protein stability index [1] is on record?
A: 3.94 ± 0.36

Q: And the protein stability index [2]?
A: 3.83 ± 0.29

Q: With HQLLEPIRDFEARKCPVHGKTMEL [TRIM29] as the sequence, how does the protein stability index [1] read?
A: 3.89 ± 0.17

Q: And the protein stability index [2]?
A: 3.84 ± 0.17

Q: For NETADLGLDIGAQGEPLGYRQDDP [CTNNB1], which protein stability index [1] is on record?
A: 5.41 ± 0.2

Q: What about the protein stability index [2] of the same sequence?
A: 5.46 ± 0.23

Q: Which protein stability index [1] does the source give for IIVSIVHSVFEFLAFKNDIQFWNS [CLPTM1] here?
A: 3.5 ± 0.83

Q: What about the protein stability index [2] of the same sequence?
A: 2.75 ± 0.65

Q: With EGSLEWDILEVKRLLDHQDNILSL [WDR41] as the sequence, how does the protein stability index [1] read?
A: 2.42 ± 0.2

Q: And the protein stability index [2]?
A: 2.53 ± 0.21

Q: Which results are given for TEVPYATFTEHPMKYTSEKFLEIC [TPRG1]?
A: protein stability index [1]: 2.64 ± 0.068; protein stability index [2]: 2.75 ± 0.12

Q: Which results are given for TEQALRLSVEADINGLRRVLDELT [KRT17]?
A: protein stability index [1]: 3.07 ± 0.2; protein stability index [2]: 3.18 ± 0.25

Q: With YSAIDRVKSRGKRLALEKVPKVGQ [PI4K2A] as the sequence, how does the protein stability index [1] read?
A: 4.04 ± 0.33

Q: What about the protein stability index [2] of the same sequence?
A: 4.12 ± 0.27

Q: With GGRDFSAPLTISRVHAGSKAALAA [PDLIM4] as the sequence, how does the protein stability index [1] read?
A: 3.59 ± 0.24

Q: What about the protein stability index [2] of the same sequence?
A: 3.85 ± 0.27

Q: With RNGAVRRFGQTIQSFTLRGDHRSP [NET1] as the sequence, how does the protein stability index [1] read?
A: 3.36 ± 0.31

Q: What about the protein stability index [2] of the same sequence?
A: 3.49 ± 0.13

Q: What does the source list for DDYTSAIEVQPNFEVPYYNRGLIL [TTC32]?
A: protein stability index [1]: 2.4 ± 0.45; protein stability index [2]: 2.42 ± 0.38

Q: For AEKLCIYTDNSIRPEELLQMELLL [CCND1], which protein stability index [1] is on record?
A: 2.28 ± 0.078

Q: What about the protein stability index [2] of the same sequence?
A: 2.09 ± 0.36

Q: What does the source list for ILAFLVLEAVAGALVVALWGPLQD [TSPAN10]?
A: protein stability index [1]: 2.85 ± 0.24; protein stability index [2]: 3.03 ± 0.27

Q: For KADLEVSNRHGHTCLMISCYKGHK [FEM1C], which protein stability index [1] is on record?
A: 3.03 ± 0.36

Q: And the protein stability index [2]?
A: 2.91 ± 0.33

Q: For VGESVEEAFYYIHNLVVACEIQVR [ADD1], which protein stability index [1] is on record?
A: 2.79 ± 0.37

Q: And the protein stability index [2]?
A: 2.91 ± 0.72

Q: With PDGGRADEWACELRLFGRVLERAA [P3H4] as the sequence, how does the protein stability index [1] read?
A: 2.46 ± 0.3

Q: And the protein stability index [2]?
A: 2.62 ± 0.38

Q: For LRPQRTKQYVLLSILLCLLASGLV [TMEM106C], which protein stability index [1] is on record?
A: 3.11 ± 0.38

Q: What about the protein stability index [2] of the same sequence?
A: 2.9 ± 0.26

Q: Which protein stability index [1] does the source give for LFSDDYGGKNCKKPAEYGYVSLGR [CEBPB] here?
A: 3.02 ± 0.31

Q: And the protein stability index [2]?
A: 3.2 ± 0.33

Q: Which protein stability index [1] does the source give for PDLVKGPWTKEEDQKVIELVKKYG [MYBL2] here?
A: 3.86 ± 0.22

Q: What about the protein stability index [2] of the same sequence?
A: 3.99 ± 0.21

Q: For EYRQRRERNNIAVRKSRDKAKRRN [CEBPD], which protein stability index [1] is on record?
A: 4.42 ± 0.36

Q: And the protein stability index [2]?
A: 4.426 ± 0.023

Q: Which results are given for PVIIAAVGTRQNEELPCTCPLCTS [RHOBTB3]?
A: protein stability index [1]: 3.76 ± 0.37; protein stability index [2]: 3.92 ± 0.35

Q: Which protein stability index [1] does the source give for SKQRKDFEGMAFLETEQGKPFVSV [GMCL1] here?
A: 3.42 ± 0.14

Q: And the protein stability index [2]?
A: 3.27 ± 0.16

Q: With LRFSGVNDTDFRVYLLGNPVVWWL [POMT2] as the sequence, how does the protein stability index [1] read?
A: 2.85 ± 0.43

Q: And the protein stability index [2]?
A: 2.96 ± 0.6

Q: With IPAVLTVSMLGYPFILPDMVGGNA [MYORG] as the sequence, how does the protein stability index [1] read?
A: 2.87 ± 0.51

Q: And the protein stability index [2]?
A: 2.63 ± 0.38

Q: Which protein stability index [1] does the source give for QRFRQFQYREAAGPHEAFNKLWEL [ZNF449] here?
A: 2.17 ± 0.18

Q: And the protein stability index [2]?
A: 2.33 ± 0.19

Q: With AEYPANGSGADRIYDLNIPAFVKF [NCK2] as the sequence, how does the protein stability index [1] read?
A: 2.88 ± 0.33

Q: And the protein stability index [2]?
A: 2.7 ± 0.29

Q: Which protein stability index [1] does the source give for KEVGSHFDDFVTNLIEKSASLDNG [SOAT1] here?
A: 4.19 ± 0.26

Q: And the protein stability index [2]?
A: 4.46 ± 0.37

Q: Which protein stability index [1] does the source give for IPISLETQAHIQECKHPSVFQHGD [MCOLN1] here?
A: 4.26 ± 0.23

Q: What about the protein stability index [2] of the same sequence?
A: 4.21 ± 0.14

Q: Which protein stability index [1] does the source give for FQEAQIKRKARNEGRNRRRQQVLP [CDKL4] here?
A: 3.79 ± 0.54

Q: And the protein stability index [2]?
A: 4.08 ± 0.14

Q: With MEAMAASTSLPDPGDFDRNVPRIC [VDR] as the sequence, how does the protein stability index [1] read?
A: 4.53 ± 0.11

Q: And the protein stability index [2]?
A: 4.53 ± 0.19

Q: What does the source list for SWDTESSGSDSGGSSSSSSSSINS [FAM104A]?
A: protein stability index [1]: 5.25 ± 0.22; protein stability index [2]: 5.1 ± 0.26

Q: For QTHSNTIVVSLQSKLASMSNDFKS [STX5], which protein stability index [1] is on record?
A: 2.8 ± 0.11

Q: And the protein stability index [2]?
A: 2.92 ± 0.24

Q: Which protein stability index [1] does the source give for EDFSLPAYMDRRDHPLPEVAHVKH [COX4I1] here?
A: 4.32 ± 0.28

Q: What about the protein stability index [2] of the same sequence?
A: 4.59 ± 0.18

Q: With RGEAEAFAIGARARAEAEQMAKKA [FLOT1] as the sequence, how does the protein stability index [1] read?
A: 5.33 ± 0.27

Q: And the protein stability index [2]?
A: 5.17 ± 0.26

Q: With QAEVLSRQITSPVSGINGDIRAKK [HNF4A] as the sequence, how does the protein stability index [1] read?
A: 5.05 ± 0.22

Q: What about the protein stability index [2] of the same sequence?
A: 5.09 ± 0.036

Q: For PEQQVDMHDMLLEELAPVGTAHIP [ZNF449], which protein stability index [1] is on record?
A: 4.68 ± 0.28

Q: And the protein stability index [2]?
A: 4.8 ± 0.085

Q: What does the source list for QVDVRFFGHHHQRAWIPSENIQDI [ZMYND11]?
A: protein stability index [1]: 2.74 ± 0.22; protein stability index [2]: 2.94 ± 0.17

Q: Which protein stability index [1] does the source give for GAQGSGGGSTSAHYAVNSQFTMGG [CARM1] here?
A: 3.92 ± 0.34

Q: And the protein stability index [2]?
A: 4.23 ± 0.2

Q: Which results are given for LHPFFAGLTPEERSFHTSRNPSR [CLK3]?
A: protein stability index (treatment: DMSO, c terminus: native): 2.72 ± 0.38; protein stability index (treatment: MLN4924 1 uM, 8 h, c terminus: native): 2.73 ± 0.52

Q: For LLMVRASRRSGKTSAVLKAGRQSV [C6orf223], which protein stability index [1] is on record?
A: 2.63 ± 0.17

Q: What about the protein stability index [2] of the same sequence?
A: 2.85 ± 0.19

Q: What does the source list for EGGEVRFNGKGKKIRKPRTIYCSL [DLX1]?
A: protein stability index [1]: 2.92 ± 0.1; protein stability index [2]: 3.39 ± 0.26

Q: For NIYETGDVCISILHPPVDDPQSGE [CDC34], which protein stability index [1] is on record?
A: 4.52 ± 0.11

Q: And the protein stability index [2]?
A: 4.51 ± 0.29

Q: For KAMLQLHERGLKLHQTIYNQACKL [INTS4], which protein stability index [1] is on record?
A: 2.23 ± 0.44

Q: What about the protein stability index [2] of the same sequence?
A: 2.21 ± 0.26

Q: Which results are given for EQFHEAASKMESTIKPRRVEPVCS [CHCHD6]?
A: protein stability index [1]: 4.42 ± 0.31; protein stability index [2]: 4.61 ± 0.14

Q: With TYLENKGHRYPCFFNTLHVGGTIR [POP5] as the sequence, how does the protein stability index [1] read?
A: 2.23 ± 0.14

Q: What about the protein stability index [2] of the same sequence?
A: 2.19 ± 0.052

Q: Which results are given for QDNNCHFDAALVSFINFFTSVLAT [SLC6A17]?
A: protein stability index [1]: 2.91 ± 0.3; protein stability index [2]: 2.75 ± 0.3

Q: With DQVPSMQDGSESFFFRHGHRGLLT [SPAG8] as the sequence, how does the protein stability index [1] read?
A: 3.39 ± 0.28

Q: What about the protein stability index [2] of the same sequence?
A: 3.54 ± 0.35

Q: Which results are given for NAKAHCGATALHFAAEAGHIDIVK [FEM1B]?
A: protein stability index [1]: 2.59 ± 0.36; protein stability index [2]: 2.62 ± 0.17

Q: For QMASQSSASHYKLQVIKALKSSGL [M1AP], which protein stability index [1] is on record?
A: 2.82 ± 0.26

Q: What about the protein stability index [2] of the same sequence?
A: 2.77 ± 0.21

Q: With VNSTLKELRRLFLVQDLVDSLKFA [RTN1] as the sequence, how does the protein stability index [1] read?
A: 2.44 ± 0.27

Q: What about the protein stability index [2] of the same sequence?
A: 2.4 ± 0.23

Q: For DLEPGVLMSAQTITSETTSTTTTT [EPB41L3], which protein stability index [1] is on record?
A: 5.19 ± 0.32

Q: What about the protein stability index [2] of the same sequence?
A: 5.17 ± 0.11

Q: For ARMLFSAVEWARNIPFFPDLQITD [NR2F2], which protein stability index [1] is on record?
A: 2.1 ± 0.21

Q: What about the protein stability index [2] of the same sequence?
A: 2.09 ± 0.28

Q: For SAVTSVRILQDEQYLMASDMAGKI [DCAF4], which protein stability index [1] is on record?
A: 3.33 ± 0.18

Q: What about the protein stability index [2] of the same sequence?
A: 3.29 ± 0.27

Q: What does the source list for AHEIERLQMEMKEDDVSFLMKHKS [TRIM35]?
A: protein stability index [1]: 4.83 ± 0.24; protein stability index [2]: 4.67 ± 0.25

Q: Which results are given for VMEIQKQIEKKEKKLHKIQNKAQR [TAF7L]?
A: protein stability index [1]: 4.13 ± 0.088; protein stability index [2]: 4.36 ± 0.21

Q: For ECFETLRGDERILSILRHQNLLKE [CHGA], which protein stability index [1] is on record?
A: 2.9 ± 0.24

Q: What about the protein stability index [2] of the same sequence?
A: 2.85 ± 0.34

Q: For AMEVNTSASEILYSAPPGDPLSTN [NFE2L1], which protein stability index [1] is on record?
A: 4.45 ± 0.27

Q: What about the protein stability index [2] of the same sequence?
A: 4.55 ± 0.23

Q: Which protein stability index [1] does the source give for MPSTPGFVGYNPYSHLAYNNYRLG [SMARCE1] here?
A: 2.27 ± 0.099

Q: What about the protein stability index [2] of the same sequence?
A: 2.42 ± 0.23

Q: Which protein stability index [1] does the source give for FLPSLRPPPLTSPSHGSLSHSKAP [NCF4] here?
A: 3.45 ± 0.13

Q: What about the protein stability index [2] of the same sequence?
A: 3.63 ± 0.14
